{"source": "the nanobody polyreactivity screen of Harvey et al. (2022)", "data": [{"assay": "yeast display, Sf9 membrane polyspecificity reagent, FACS + sequencing; frameworks hold sequencing errors", "how_it_was_run": "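Galactose induction of a Saccharomyces cerevisiae BJ5465 synthetic nanobody display library ran 36–48 hours. The cells were then stained for 1 hour at 4 °C with 10% biotinylated, detergent-solubilized Sf9 membrane reagent, pulled down on streptavidin microbeads and FACS-sorted into low and high (top ~1%) gates on expression and reagent-binding fluorescence. Labels for polyreactivity follow the gate of origin.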", "values": [{"sequence": "QVQLVESGGGLVQAGGSLRLSCAASGSTFKTYTMGWYRQAPGKEREFVAGITSGGSTSYADSVKGRFTISRDNAKNTVYLQMNSLKQEDTAVYYCAAPDGDTSFSDQAYDYWGQGTQVTVSS", "polyreactivity (PSR sort gate)": "low polyreactivity"}, {"sequence": "QVQLVESGGGLVQAGGSLRLSCAASGITFGRNTMGWYRQAPGKERELVAAIDSGGNTYADSVKGRFTISRDNAKNTVYLQMNSLKPEDTAVYYCATVADEPRAYSGYEESDYWGQGTQVTVSS", "polyreactivity (PSR sort gate)": "low polyreactivity"}, {"sequence": "QVQLVESGGGLVQAVGSLRLSCAASGFIFSYYAMGWYRQAPGKERELVAAISRSGSITYYADSVKGRFTISRDNAKNTVYLQMNRLKPEDTAVYYCAARYWRRGSSGRLNYWGQGTQVTVSS", "polyreactivity (PSR sort gate)": "high polyreactivity"}, {"sequence": "QVQLVESGGGLVQAGGSLRLSCAASGSILVSNDMGWYRQAPGKERELVAAISWSGGSTYYADSVKGRFTISRDNAKNTVYLQMNSLKPEDTAVYYCATGVALRYGYWGQGTQVTVSS", "polyreactivity (PSR sort gate)": "low polyreactivity"}, {"sequence": "QVQLVESGGGLVQAGGSLRLRCAASGSIFFRYAMGWYRQAPGKERELVANISSGGGNTYYADSVKGRFTISRDNAKNTVYLQMNSLKPEDTAVYYCARRLATRGHTYDYWGQGTQVTVSS", "polyreactivity (PSR sort gate)": "low polyreactivity"}, {"sequence": "QVQLQESGGGMVQAGGSLRLSCAASGYISWADYMGWYRQAPGKERELVAGIGYGSTTYYADSVKGRFTISRDNAKNTAYLQMNSLKPQYTAVYYCAVGWYRDTAYKYWGQGTQVTVSS", "polyreactivity (PSR sort gate)": "low polyreactivity"}, {"sequence": "QFQLVESGGGLFQAGGSLRLSCAASGSTFKRYAMGSYRQAPGKERELVAAISASGGSTSYADSVKGRFTISRDKAKNTVYLQMISLKPEDTAVYYCARDRFRSRFDYWGQGTQVTVSS", "polyreactivity (PSR sort gate)": "high polyreactivity"}, {"sequence": "QVQLVESGGGLGQAGGSLRLSCAASGSIFYSYAMGWYRQAPGKDRELVADISSDGSTNYADSVKGRFTISRDNAKNTVFLQMNSLKPEDTAVYYCAKKPSSARYVTIGFDYWGQGTQVTVSS", "polyreactivity (PSR sort gate)": "low polyreactivity"}, {"sequence": "QVQLVESGGGLVQAGGSLRLSCAASGVTFTYYAMGWYRQAPGKERELVAAISKSGGRTYYADSVKGRFTISRDNAKNTVYLQMNSLKPEDTAVYYCAARITREGYYWGQGTQVTVSS", "polyreactivity (PSR sort gate)": "high polyreactivity"}, {"sequence": "QVQLVESGGGLVQAGGSLRLSCAASGRTFIYYAMGWYRQAPGKERELVAGITYSVGSTYYADSVKGRFTISRDNEKNTVYLQMNSLKPEDTAVYFCAADATFESDWGQGTQVTVSS", "polyreactivity (PSR sort gate)": "low polyreactivity"}, {"sequence": "QVQLVESGGGLVQAGGSLRLSCAASGRILVSYAMGWYRQAPGKERELVAAISRSGGSTYYADSVKGRFTISRDNAKNSVYLQMNSLKPEDSAVYYCNVYRFSRYDYWGQGTQVTVSS", "polyreactivity (PSR sort gate)": "high polyreactivity"}, {"sequence": "QVQLVESGGGLVQAGGSLRLSCAASGRISDFYAMGWNRQAPGKEREFVAAMSWSGGSTSYADSVKGRFTISRDNAKNTVYLQMNSLKPEDTSVYYCSAKGSRGNSAWYGYWGQGTQVTVSS", "polyreactivity (PSR sort gate)": "high polyreactivity"}, {"sequence": "QVQLVESVGGLVQEGGSLRLICAASGSIFYTYAMGWYRQAPGKERELVAAIRSTGRTNYADSVKGRFTISRDNAKNTVYLHMNSLKPEDTGVYYCAAGTNYGKLRIRFDYWGQGTQVTVSS", "polyreactivity (PSR sort gate)": "low polyreactivity"}, {"sequence": "QVQLVESGGGLVQAGGSLRLSCAASGIIFYANAMGWYRQAPGKERELVAAISWSGSSTYYADSVKGRFTISRDNAKNTVYLQMNSLKPEDTAVYYCNKATSSVRYLKYYYWGQGTQVTVSS", "polyreactivity (PSR sort gate)": "high polyreactivity"}, {"sequence": "QVQLVESGGGLVQAGGRLRLSCAASGRIFGKNVMGWYRQAPGKERELVAAISSGGSTYADSVKGRFTISRDNAKNTFYLQMNSLKPEDTAVYYCNTRPRLYGYRPSQYTYDYWGQGTQVTVSS", "polyreactivity (PSR sort gate)": "high polyreactivity"}, {"sequence": "QVQLVESGGGLVQAGGSLRLTCAASGSIFTAYTMGWYRQAPGKERDLVAAITERGGSTYYADSVKGRFTISRDNAKNTVYLQMNRMKPEDSAVYYCAASTLKDIYLWFRVDYWGQGTHVTVSS", "polyreactivity (PSR sort gate)": "low polyreactivity"}, {"sequence": "QVQLVESGGGLVQAGGSLRLSCAASGSTFFRYAMGWYRPAPGKEREFVAAISKRGGSTHYADSVKGRFTISRDNAKNTVYLQMNSLKPEDTAVYYCAASSFTSSYNFWGQGTQVTVSS", "polyreactivity (PSR sort gate)": "high polyreactivity"}, {"sequence": "QVQLVESGGGLVQAGGSLRLSCAPSGSIFPSYAMGWYRQAPGKERELVAAISRSAGSTYYADSVKGRFTISRDNAKNTVYLQMNSLKPEDPAVYYCAADGYSSRYRYDYWGQGTQVTVSS", "polyreactivity (PSR sort gate)": "low polyreactivity"}, {"sequence": "QVQLVESGGGLVQAGGSLRLSCAASGFTFYTYAMGLYRQAPGKERELVAAITSSGGSTYYADSVKGRFTISRDNAKNTVYLQMKSLKPEDTAVYYCNAVSYYLGDDYWGQGTQVTVSS", "polyreactivity (PSR sort gate)": "high polyreactivity"}, {"sequence": "QVQLVESGGGLVQAGGSLRLSCAASGRIFKRYVMGWYRQAPGKERELVAAISVRGASTYYADSVKGRFTISRDNAKNTVSLQMNSLKPEDTAVYYCATAGYRLLDYWGQGTQVTVSS", "polyreactivity (PSR sort gate)": "high polyreactivity"}, {"sequence": "QVQLVESGGGLVQEGGSLRISCASSGFIFASYAMAWYIQAPGKERELVAAITQSGGITYYADSVKERFTISRDNAKYTVYLQMNSLKPEDTAVFYCNTPLLKRTTRCRERNYWGQGTQVTVSS", "polyreactivity (PSR sort gate)": "low polyreactivity"}, {"sequence": "QVQLVESGGGLVQAGGSLRLSCAASGRTFYSYAMGWYRQAPGKERELVAAISYTGASTFYADSVKGRFTISRDKSKNTVYLQMNSLKPEDTAVYYCADRKVRFGVDYWGQGTQVTVSS", "polyreactivity (PSR sort gate)": "high polyreactivity"}, {"sequence": "QVQLVESGGGLVQAGGSLRLSCAASGFIFDSYAMGWYRQAPGKERELVATITKGGGRTYYADSVKGRFTISRDNAKNTVYLQMNSLKPEDTAVYYCNARGFSRRKGLDYWGQGTQVTVSS", "polyreactivity (PSR sort gate)": "low polyreactivity"}, {"sequence": "QVQLVESGGGLVQAGGSLRLSCAASGFTFRNYAMGWYRQAPGKEREFVAAISFSGGRTYYADSVKGRFTISRDNAKITVYLQMNSLKPEDTAVYFCAKKSYSKYEYWGQGTQVTVSS", "polyreactivity (PSR sort gate)": "low polyreactivity"}, {"sequence": "QVQLVESGGGLVQAGGSLRLSCAASGITFTAYAMGWYRQAPGKERELVATINSTGITNYADSVKGRFTISRDNAKNTFYLQMNCLKAEDTAVSYCGADVLDISSYDGMDYWGKGTQVTVSS", "polyreactivity (PSR sort gate)": "low polyreactivity"}, {"sequence": "QVQLVESGGGLVQAGGSLRLSGAASGSTFESYAMGWYRQAPGKERELVAAISWRVGSTYYADSVKGRFTISRDNAKNTVYLQMNSLKPEDTAVYDCASKGRYAHYGGYDYWGQGTQVTVSS", "polyreactivity (PSR sort gate)": "low polyreactivity"}, {"sequence": "QVQLVESGGGLVQAGGSLRLSCAASGFTFYTNVMAWYRQAPGKERELVAAINSGGSTNYADSVKGRFTISRDNAKNTVFLQMNSLKPEDTAVYYCNKRGTEIGYDYWGQGTQVTVLS", "polyreactivity (PSR sort gate)": "low polyreactivity"}, {"sequence": "QVQLVESGGGLVQAGGSLRLSCAASGFTFVQYAMGWYRQAPGKERELVATISKSGGITYYADSVKGRFTISRDNAKNTVYLQMNSLKPEDNAVYYCAAAWYYSSRGFHATWGHDYWGQGTQVTVSS", "polyreactivity (PSR sort gate)": "low polyreactivity"}, {"sequence": "QVQLVESGGGLVQAGGSLRLSCAASGFTFGYYAMGWYRQAPGKERELVASISSRGGSTNYADSVKGRFTISRDNAKNTVYLQMNSLKPEDTAVYYCNADYYYPLRSNKYYYWGQGTQVTVSS", "polyreactivity (PSR sort gate)": "high polyreactivity"}, {"sequence": "QVQLVESGGGLGQAGGSLRLSCAASGRTFAAYAMGWYRQAPGKERELVAAISAGDGTNYADSVKGRFTISRVNAQNTVYLQMNSLKPEDTAVYYCAAVGPLFWPYYSYRRGYDYWGQGTQVTVSS", "polyreactivity (PSR sort gate)": "low polyreactivity"}, {"sequence": "QVQLVESGGGLVQAGGSLRLSCAASGFIFYKYAMGWYRQAPGKERELVAAITWRGGRTNYADSVKGRFTISRDYAKNTVYLQMNSLKPEDTAVYYCAADPWSSSYYYSYEYWGQGTQVTVSS", "polyreactivity (PSR sort gate)": "high polyreactivity"}, {"sequence": "QVQLVESGGGLVQAGGSLRLSCAASGFTFWRYAMGWYRQAPGKERELVAAISRTGGRTYYADSVKGRFTISRDNAKNTVYLQMNSLKPEDTAVYYCAADWLYDYGEYYYWGQGTQVTVSS", "polyreactivity (PSR sort gate)": "high polyreactivity"}]}]}
